According to EP2479185A1 (INSTITUT PASTEUR, dated 2012):

B1: P98 protein of Sulfolobus islandicus rod-shaped virus 2 (SIRV2) (other)
chain: MAITLLEGALYGFFAVTGILVGSFVVGEIVHLYNEKQNNENFAKAVDQMSKSTVIAVESIKDTTTTAINALLNMDTLRDVNALAREKAKDQNPNTQAK
notes: Assayed as assembled VAPs (homomultimeric pyramids) from SIRV2-infected S. islandicus; Also used here for P98 expressed from pSVA1059 in S. acidocaldarius, for which no tag is stated; The number of monomers per VAP was not measured; also called SIRV2-P98; protein 98
B2: recombinant C-terminal his-tagged P98 expressed in E. coli Rosetta(DE3)pLys from pSVA1051 (other)
chain: B1 chain
notes: Found primarily in the E. coli membrane fraction, where it forms closed VAPs on the inner membrane; also called recombinant P98; E. coli 1051 expressing SIRV2-ORF98; not shown: C-terminal his tag

How the values were obtained:
[1] = biological target: the molecule itself; experiment: SDS-PAGE and MALDI-TOF MS of purified VAPs (self-assembly)
[2] = biological target: the molecule itself; experiment: heterologous expression in E. coli and electron microscopy of thin sections (self-assembly)

Protein | binding result [1] | binding result [2]
B1 | binds | 
B2 |  | binds
